Earlier results on one substance are cited in paper PMC4048747.

In this series the target is IGF-1R (UniProt P08069).
Sequence of UniProt P08069 (P08069 31-736, chain 1 of 2): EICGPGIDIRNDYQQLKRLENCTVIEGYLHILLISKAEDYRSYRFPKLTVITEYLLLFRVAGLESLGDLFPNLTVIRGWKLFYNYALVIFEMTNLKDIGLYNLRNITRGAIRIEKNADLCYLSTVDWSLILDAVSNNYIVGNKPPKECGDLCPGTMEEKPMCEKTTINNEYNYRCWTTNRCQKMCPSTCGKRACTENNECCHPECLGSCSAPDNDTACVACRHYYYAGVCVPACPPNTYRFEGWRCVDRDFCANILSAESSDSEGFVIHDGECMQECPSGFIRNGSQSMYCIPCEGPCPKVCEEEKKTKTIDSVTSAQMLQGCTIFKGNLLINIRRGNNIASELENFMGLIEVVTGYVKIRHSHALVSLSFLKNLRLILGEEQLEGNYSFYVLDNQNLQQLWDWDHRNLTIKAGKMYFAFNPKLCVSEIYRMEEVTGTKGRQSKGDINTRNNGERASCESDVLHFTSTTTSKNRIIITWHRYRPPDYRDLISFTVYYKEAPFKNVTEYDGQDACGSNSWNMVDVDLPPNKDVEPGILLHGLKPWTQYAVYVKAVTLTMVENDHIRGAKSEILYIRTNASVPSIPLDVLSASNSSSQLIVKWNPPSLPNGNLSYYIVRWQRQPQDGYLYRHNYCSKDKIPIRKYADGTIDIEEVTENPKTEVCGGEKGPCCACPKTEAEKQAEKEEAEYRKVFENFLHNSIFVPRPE
Sequence of UniProt P08069 (P08069 741-935, chain 2 of 2): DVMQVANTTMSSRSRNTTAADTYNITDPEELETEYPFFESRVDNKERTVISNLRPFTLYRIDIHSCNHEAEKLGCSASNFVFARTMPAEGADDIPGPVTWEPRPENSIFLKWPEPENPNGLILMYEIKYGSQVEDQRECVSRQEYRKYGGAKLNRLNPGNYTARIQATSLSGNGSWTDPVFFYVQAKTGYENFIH

Decorin (from UniProt P07585): the Kd – broadly, the concentration at which binding is half-saturated – was 18 nM.
